# Experimental data reported in the nanobody polyreactivity screen of Harvey et al. (2022).
# Experiment: yeast display, Sf9 membrane polyspecificity reagent, FACS + sequencing; frameworks hold sequencing errors
# Procedure, shortened: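 A synthetic nanobody library was expressed on Saccharomyces cerevisiae BJ5465 by galactose induction for 36–48 hours. The library was stained for 1 hour at 4 °C with 10% biotinylated, detergent-solubilized Sf9 membrane reagent and enriched with streptavidin microbeads before FACS. Low and high (top ~1%) gates were set on anti-HA fluorescence for expression and streptavidin fluorescence for reagent binding, and each polyreactivity label reflects the gate of origin.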
row,Sequence,polyreactivity (PSR sort gate)
1,QVQLVESVGGLVQAGGSLPLSCAASGSTFVDYDMGWYRQAPGKERELVAAITYSGARTYYADSVKGRFTISRDNAKNTVYLQMNSLTPEDSAVYYGNADQRTASDQLEFDYWGQGTQVTVSS,low polyreactivity
2,QVQLVESGGGLVQAGGSLRLSCAASGRILPWYAMGWYRQAPGKERELVARIRSTDSTNYADSVKGRFTISRDNAKNTVYLQMNSLKPEDTAVYYCAKVQWGFPYAWLGSDYWGQGTQVTVSS,low polyreactivity
3,QVQLVESGGGLVQAGGSLRLSCAASGGTFYRYAMGWYRQAPGKERELVAAISRGGSTTYADSVKGRFTISRDNAKNTVYLQMNSLKPEDTAVYYCAARYRCSLPAGLRLLGQGTQVTVSS,high polyreactivity
4,QVQLVESGGGLVQAGGSLRLSCAASGITFQNYAMGWYKQAPGKERELVAAITRSGGRTYYADSVKGRFTISRDNAKNTVYLQMNSLKPEDTAVYYCAVYGIGRPYWYDYWGQGTQLTVSS,high polyreactivity
5,QVQLVESGGGLVQAGGSLRLSCAASGRIFSVYTMGLYRQAPGKERELGAAISSGGRTYYADSVKGRFTISRDNAKNTVYLQMNSLKPEDTAVYYCAAGSHYAFYYWGQGTQVTVSS,high polyreactivity
6,QVQLVESGGRLVQAGGSLRLSCAASGITFGVYAMGWYRQAPGKERELVAAISRRGAATYYADSVKGRFTISRDNAKNTVYLQMNSLKPEDTAVYYCAAYLARRQYDYWGQGTHVTVSS,high polyreactivity
7,QVQLVESGGGLVQAGGSLRLSCAASGGTIAFNGMGWYRQAPAKERELVAAITWRSGSTYYADSVKGRFTISRDNAKNTVYLQMNSLKPEDTAVYYCAARLYRYTPFDYWGQGTQVTVSS,high polyreactivity
8,QVQLVESGGGLVQAGGSLRLSCAASGSIFSPYAMGWYRQAPGKERELVAAISDRGGSTYYADSVKVRFTISRDNAKNTVYLQMNSLKPEDTAVYYCAARVGYAFRYYYWGQGTQVTVSS,high polyreactivity
9,QVQLVESGGGLVQAGGSLRLSCAASGYTFPLYAMGLYRQAPGKERELVADINIGGASTYYADSVKGRFTISRDNAKNTVYLQMNSLKPEDTAVYYCAKEYYDGYFPTFDYDYWGQGTQVTVSS,low polyreactivity
10,QVQLVESGGGLVQAGGSLRLSCAASGRTFVSYVMGWYRQAPGKERAFVAAISRSGGNTYYADSVKGRFTMSRDNAKNTVYLQMNSLKPEDTAVDYCAAKLGPLVYDHDYWGQGTQVTVSS,high polyreactivity
11,QVQLVESGGALVQAGGSLRLSCAASGRTLESNAMGWYRQTPGKERELVAAISTIGGTYYADSVKGRFTLSRDNAKNTVYLQMNSLKPEDTAVYYCAKVWYDHSYIPIYDSWGQGTQVTVSS,low polyreactivity
12,QVQLVESGGGLVQAGGSLRLSCAASGSIFYKYAMGWYRQAPGKEREFVAAITGSGVRTYYADSVKGRFTISRDNAKNTVYLQMNRLKPDDTAVYYCAASSYGYDYWGQGTQVTVSS,high polyreactivity
13,QVQLVESGGGLVQAGGSLRLSCAASGRTFYKYGRGWYRQAPRKERELVASISSGGNTYYADSVKGRFTISRDNAKHTVYLQMNSLKPDASAVFYCAAVNYWPFYYYVYGYWGQGTQVTVSS,high polyreactivity
14,QVQLVESGGGLVQAGGSLRLSCAASGIIFFRNPMGWYRQAPGKERELVAAISSGGSTYYADSVKGRFTISRDNAKNTVYLQMNSLKPEDTAVYYCNQVGPLYYASYDYWGQGTQGTVSS,low polyreactivity
15,QVQLVESGGGLVQAGGSLRLSCAASGLIFSFYALGWYRQAPGKERELVAAINRSGGSTYYADSVKGRFTISRDNSKNTVYLQMNSLKPEDTAVYYCAARNAFGTYYYWGQGTQVTVSS,high polyreactivity
16,QVQLVESGGGLVQAGGSLRLSCAASGSTPDGYGMGWYRQAPGKERELVAVITIGGGRTYYADSVKGRFTISRDNAKNTVYLQMNSLKAVDTAVYYCAAKGWRRYYIGDYWGQGTQVTVSS,high polyreactivity
17,QVQLVESGGGLVQAGGSLRLSCAASGSIFPVYAMGWYRPAPGKERELVAAISLRAGNTYYADSVKGRFTISRDNAKNTVYLQMNSLKPEDTAVYDCAVELFRSTTIYDYWGQGTLVTVSS,high polyreactivity
18,QVQLVESGGGLLLAGGSLRLSCAASGYTFVYNAMGWYRHAPGKEREFVAAITWSGTSTRYADSVKGRFTISRDNAKNNVYLQMKSLKPEDTAVYYCAARRRSAQSGSYNHWGQGTQVTVSS,high polyreactivity
19,QVQLVESGGGLVQAGGSLRLICAASGSIFFYNAMGWYRQAPGKERELVAAITTRGGSTYYADSVKGRFTISRDNAKNTVYLQMNSLKPEDTAVYYCARSSRGKLDYWGQGTQVTVSS,low polyreactivity
20,QVQIVESGGGLVQAGGSLRISCPASGRTFNYNAMGWYRQAPGKERELVAAITSGASTNYADSVKGRFTISRDNAKNTVFLQINRLKPEDTAVYYCAKATYPHEYDYWGQGTQVNVSS,low polyreactivity
21,QVQLVESGGGLVHAGGSLRLSCAAYGSIFSKYVMGGSREAPGKERELVAAISWSGTRTYYADSVMGRFTISRDNAKNTVYLQMNSLKPEDTAVYYCAARRLYSGHQYDYWGQGTQVTVSS,high polyreactivity
22,QVQLVESGGGLVQAGGSLRLSCAASGSTFLIKAMGWYRQAPGKEREVVASIRYRGATTYADSVKGRFTISRDNAKNTVYLQLKSLKPEDTAVYYCAAVHWRYQYSLRYDYWGQGTQVTVSW,high polyreactivity
23,QVQLVESGGGLVQAGGSLRLSCAASGRTFRANAMGWYRQAPGKERELVAAITSTGDRTYYADSVKGRFTISRDNAKNTVYLQMNSLKPEDTAVYYCAAENNRYGGYRKYDYWGQGTQVTVSS,low polyreactivity
24,QVQLVESGRGLVQAGGSLRLSCAASGGTFGNNDMGWYRQAPGKERELVAAIRSAGTTYYADSVKGRFTISRDNAKNTVYLQMNSLKPEDTAVYYCNAYTTGYWSYGFQYYGEDYWGQGTQVTVSS,low polyreactivity
25,QLQLVESGGGFVQAGGSLRLSCAASGSTFQIYTMGWYRQAPGKERELVAAITNGGGSTYYADSVKGRFTISRDKANNTVYLQMNSLKPEDTAVYYCAAEQRYPLIILYDYWGQGTQVTVSS,low polyreactivity
26,QDQHVESGGGLVQAGCSLRLSCAASGFIFTYYAMGWYRQAPGKERELVAAISRSGGNTYYADSVKGRFTISRDNAKNTVYFQMYSLKREDTAVYFCAAETRRGGYWGYEYYYWGQGTQVTVSS,high polyreactivity
27,QVHLVDSGGGLVQAGGSLRLSCAASGFTFWRYTMGWYRQAPGKERELVAAISGGTTTYYADSVKGRFTISRDNAKNTVYLQMNSLKPEDTAVYYCAAYSQRARTYDYWGQGTQVTVSS,high polyreactivity
28,QVQLVESGGGLVQVGGSLRLSCAASGFTFLGYAMGWYRQAPGKEREMVAAITTGGGSTYYAVSVKGRFTISRDNATTTVYLQMNSLKPEDTAVYYCAARRNVRPRYGYWGQGTQVTVSS,high polyreactivity
29,QVQLVESGGGLVQAGGSLRLSCAASGSIFSWNAMGWYRQAPGKERELVAAITGGGSTYYADSVKGRFTISRDNAKNTFYLQMNSLKPEDTAVYYCNALWYWDKLEYWGQGTQVTVSS,high polyreactivity
30,QVQLQESGGGLVQAGGSLRLSCAASGTIFRISDMGSYRQAPGKDLEFVAAITYGANTYYADSGKGRFTISRDNAKNTVYLQMNSLKPEDTAVYYCAVPPVKETILDYWGQGTQVTVSS,low polyreactivity
